Experimental data published in patent publication US11998613B2, “Antibody-drug conjugates containing an anti-mesothelin antibody and uses thereof” (DEVELOPMENT CENTER FOR BIOTECHNOLOGY, priority 2020, dated 2024).

What was measured:
[1] = test system: Pancreatic cancer cell line KLM-1 (MSLN+); experiment: In vitro cytotoxicity, CellTiter-Glo luminescent cell viability assay, KLM-1; format: cell-based, human; settings: KLM-1, 72 hours treatment; read-out: Relative IC50 (nM of toxic payload/ADCs)
Description: Pancreatic cancer cell line KLM-1 was respectively grown in RPMI 1640 Medium (ATCC modification) medium supplemented with 10% fetal bovine serum. Ovarian carcinoma cell line OVCAR-3 was grown in RPMI 1640 Medium (ATCC modification) medium supplemented with 20% fetal bovine serum. The KLM-1 & OVCAR-3 cell lines were maintained in an atmosphere of 5% CO2 in a humidified 37° C. incubator. The day before treatment, cells were collected and seeded into 96-well plates (4,000 cells per well). On the second day, cells were treated with 3-fold serial dilution concentration of toxic payloads and ADCs. Each treatment was performed in eight triplicate data points. After the treatment of 72 hours, cell viability was assessed by CellTiter-Glo® kit (Promega) according to the manufacturer's instruction. At the end of the incubation, luminescence was measured using a SpectraMax i3x Multi Mode Detection Platform (Molecular Devices). Compound cytotoxicity was evaluated in comparison to cells treated with 0.05% PBS (ADCs) or 0.05% DMSO (toxic payload). IC50 values were calculated by fitting viability data with a four-parameter logistic equation using GraphPad prism 5.0 software.

[2] = In vivo PK in mice, MSD ECL total and conjugated antibody assays; design: species or system BALB/c mice; settings: 3 mg/kg via the tail vein
Description: The mice were administered at a dose level of 3 mg/kg via the tail vein. Blood samples were then obtained at different time points for determining the concentrations of DCBPR2002-4(DBCO-vc-MMAE) in mice by MESO QuickPlex SQ 120 method.

[3] = test system: KLM-1 human pancreatic cancer xenograft; experiment: KLM-1 xenograft model (Example 43); format: in vivo, male NOD SCID mice; settings: 15 mg/kg IV once weekly for 3 weeks
Description: Each of the formulations was administered intravenously (IV) to the mice once weekly for three weeks.
(§1) Five mice were housed in each cage.
When the average tumor volume had reached about 200 mm^3, the mice were randomly divided into 3 groups (N=6 per group). Each of the vehicle, DCBPR2002-lysine-DBCO-vc-MMAE (15 mg/kg), and DCBPR2002-4(DBCO-vc-MMAE) (15 mg/kg) was intravenously administered once weekly for 3 weeks.
(§2) Differences are considered significant at *P<0.05.

[4] = test system: KLM-1 human pancreatic cancer xenograft; experiment: KLM-1 xenograft model (Example 45); settings: 15 mg/kg IV once weekly for 3 weeks
Description: Formulations respectively comprising test article DCBPR2002-4(DBCO-vc-MMAE)(15 mg/kg), test article DCBPR2002-4(DBCO-vc-seco-DUBA)(15 mg/kg), test article DCBPR2002-4(DBCO-s-DM1) (15 mg/kg), test article DCBPR2002-2(DBCO-vc-MMAE)-2(DBCO-vc-seco-DUBA) (15 mg/kg), test article DCBPR2002-2(DBCO-vc-MMAE)-2(DBCO-s-DM1) (15 mg/kg), test article DCBPR2002-2(DBCO-vc-seco-DUBA)-2(DBCO-s-DM1) (15 mg/kg), and a corresponding vehicle were formulated by diluting the stock with a 25 mM sodium citrate buffer (pH6.5). Each of the formulations was administered intravenously (IV) once weekly for three weeks.
The KLM-1 cells were maintained in vitro as a monolayer culture in RPMI-1640 medium supplemented with 10% fetal bovine serum at 37° C. in an atmosphere of 5% CO2 in air. The tumor cells were routinely sub-cultured twice weekly by trypsin-EDTA treatment. The cells growing in an exponential growth phase were harvested and counted for tumor inoculation.
Male NOD SCID mice at age of 6-7 weeks were purchased from BioLasco Taiwan Co., LTD. and quarantined for one week. Five mice were housed in each cage. All animals were hosted in the animal facility with a 12-h light/12-h dark cycle at 19-25° C. Animals had free access to rodent pellet foods and water ad libitum.
KLM-1 cells were subcutaneously (SC) implanted (4×10^6 cells in 1:1 PBS/matrigel mixture at 0.1 mL per mouse) into the right flank of male NOD SCID mice. When the average tumor volume had reached 300 mm^3, the mice were randomly divided into 7 groups (N=6 per group). Each of the vehicle, DCBPR2002-4(DBCO-vc-MMAE), DCBPR2002-4(DBCO-vc-seco-DUBA), DCBPR2002-4(DBCO-s-DM1), DCBPR2002-2(DBCO-vc-MMAE)-2(DBCO-vc-seco-DUBA), DCBPR2002-2(DBCO-vc-MMAE)-2(DBCO-s-DM1), DCBPR2002-2(DBCO-vc-seco-DUBA)-2(DBCO-s-DM1) was intravenously administered as 15 mg/kg once weekly for 3 weeks.
The tumor volumes, body weights, mortality, and signs of overt toxicity were monitored and recorded three times weekly for 28 days. Tumor volumes were measured three times per week using calipers and calculated according to the formula: Tumor Volume=(w2×l)/2, where w=width and l=length in diameter (mm) of the tumor. […] One-way ANOVA followed by Dunnett's test was applied for comparison between the vehicle and test article-treated groups. Differences are considered significant at *P<0.05. Animals were weighed three times weekly until the completion of the study.

[5] = test system: OVCAR-3 human ovarian cancer xenograft; experiment: OVCAR-3 xenograft model (Example 46); format: in vivo, female NOD SCID mice
Description: as §1
OVCAR-3 cells were subcutaneously (SC) implanted (1×10^7 cells in 1:1 PBS/matrigel mixture at 0.2 mL per mouse) into the right flank of female NOD SCID mice. […] Each of the vehicle, DCBPR2002-4(DBCO-vc-MMAE) (15 and 30 mg/kg), and DCBPR2002-4(DBCO-vc-seco-DUBA) (15 mg/kg) was intravenously administered once weekly for 3 weeks.
as §2

B1: DCBPR2002-4(DBCO-vc-MMAE): DCBPR2002-4Az reacted with DBCO-vc-MMAE; trimannosyl-conjugated ADC, DAR 3.89 (conjugate)
VH: QVQLVQSGAEVKKPGASVKVSCKASGYSFTGYTMNWVRQAPGQGLEWMGLITPYNGASSYNQKFRGRVTMTRDTSISTAYMELSRLRSDDTAVYYCARGGYDGRGFDYWGQGTLVTVSS
VL: EIVLTQSPATLSLSPGERATLSCSASSSVSYMHWYQQKPGQAPRLLIYDTSKLASGIPARFSGSGSGTDFTLTISSLEPEDFAVYYCQQWSKHPLTFGQGTKVEIKR
In the case of B1, the IC50 [1] is reported as 101 nM, the “AUC(0−last)” value ([2]; Conjugated antibody) is reported as 2.264 µg·h/mL and the C0 ([2]; Conjugated antibody) is reported as 0.275 µg/mL. The MRT ([2]; Conjugated antibody) was 23.4 h, the Vss ([2]; Conjugated antibody) was 0.155 L/kg and the “AUC(0−last)” value ([2]; Total antibody) was 25.963 µg·h/mL. It also gave a C0 ([2]; Total antibody) of 0.346 µg/mL, an MRT ([2]; Total antibody) of 299 h and a Vss ([2]; Total antibody) of 0.129 L/kg. For the same molecule, the t1/2 ([2]; Total antibody) was 220 h, the body weight changes [3] was “No body weight loss was observed” and the “tumor growth / anti-tumor activity” value ([3]; TGI≥58% considered significant) was “significantly reduced KLM-1 tumor growth from Day 7 to Day 28”. The body weight changes [4] was “No body weight loss was observed”, the “ranking of efficacy potency” value [4] was “DCBPR2002-4(DBCO-vc-seco-DUBA)=DCBPR2002-2(DBCO-vc-MMAE)-2(DBCO-vc-seco-DUBA)=DCBPR2002-2(DBCO-vc-seco-DUBA)-2(DBCO-s-DM1)>DCBPR2002-4(DBCO-vc-MMAE)>DCBPR2002-2(DBCO-vc-MMAE)-2(DBCO-s-DM1)>DCBPR2002-4(DBCO-s-DM1)” and the body weight changes ([5]; 15 mg/kg IV once weekly for 3 weeks) was “No body weight loss was observed”. The body weight changes ([5]; 30 mg/kg IV once weekly for 3 weeks) was “No body weight loss was observed”.
